From patent publication US20210395318A1 (Molecular Partners, published 2021)

Legend:
human serum albumin = target: T1, human serum albumin (human, UniProt P02768 25-609); experiment: SPR (ProteOn XPR36), Protein #5 captured on hFAP-coated GLC chip, serum albumin as analyte, PBST
T1 construct: also called HSA
Procedure: (§1) All SPR measurements were performed using a ProteOn XPR36 instrument (BioRad) and a running buffer of PBS pH 7.4 containing 0.005% Tween 20® (PBST). The 1:1 Langmuir model was used for the fitting of SPR traces.
(§2) ProteOn setup for Protein #5 binding to serum albumin of different species. First, human FAP (hFAP) was coated on a GLC chip (BioRad) to a level of 700 RU before 50 nM Protein #5 was immobilized as analyte for 120 s (dissociation of 0 s) at constant flow of 100 μl/min to a level of 120 RU. The binding of the serum albumin to Protein #5 was measured by injecting human serum albumin (HSA), cynomolgus serum albumin (CSA) and mouse serum albumin (MSA) in a serial dilution of 100, 33, 11 and 3.7 nM with an association of 120 s and a dissociation of 600 s at a constant flow of 100 μl/min. HSA, CSA and MSA binding was measured serially and the hFAP/Protein #5 complex was regenerated each time with 10 mM glycine pH2 for 18 s at a flow of 100 μl/min. Thus, Protein #5 had to be re-immobilized on hFAP after each regeneration step. […] The kinetic was calculated on the first 300 s of dissociation.

cynomolgus serum albumin = target: T2, cynomolgus serum albumin (cynomolgus, UniProt A2V9Z4 25-608); experiment: as above
T2 construct: also called CSA
T2 sequence (A2V9Z4 25-608 limits assumed): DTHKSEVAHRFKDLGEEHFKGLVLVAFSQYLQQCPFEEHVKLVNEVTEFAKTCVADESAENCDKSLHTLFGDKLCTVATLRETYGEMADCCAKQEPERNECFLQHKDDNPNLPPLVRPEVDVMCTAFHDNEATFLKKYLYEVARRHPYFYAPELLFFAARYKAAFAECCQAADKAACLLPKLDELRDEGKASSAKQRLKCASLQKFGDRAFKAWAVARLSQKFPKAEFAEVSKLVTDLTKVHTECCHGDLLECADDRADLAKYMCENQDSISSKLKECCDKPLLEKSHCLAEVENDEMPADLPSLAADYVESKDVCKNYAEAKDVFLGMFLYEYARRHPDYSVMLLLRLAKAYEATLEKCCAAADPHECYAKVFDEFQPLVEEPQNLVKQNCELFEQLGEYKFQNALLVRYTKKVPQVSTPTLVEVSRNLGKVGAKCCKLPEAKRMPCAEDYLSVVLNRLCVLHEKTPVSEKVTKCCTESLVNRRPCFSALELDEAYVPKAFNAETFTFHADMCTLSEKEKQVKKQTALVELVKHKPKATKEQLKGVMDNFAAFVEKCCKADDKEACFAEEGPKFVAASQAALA
Procedure: as §1, §2

T1 sequence (P02768 25-609 limits assumed): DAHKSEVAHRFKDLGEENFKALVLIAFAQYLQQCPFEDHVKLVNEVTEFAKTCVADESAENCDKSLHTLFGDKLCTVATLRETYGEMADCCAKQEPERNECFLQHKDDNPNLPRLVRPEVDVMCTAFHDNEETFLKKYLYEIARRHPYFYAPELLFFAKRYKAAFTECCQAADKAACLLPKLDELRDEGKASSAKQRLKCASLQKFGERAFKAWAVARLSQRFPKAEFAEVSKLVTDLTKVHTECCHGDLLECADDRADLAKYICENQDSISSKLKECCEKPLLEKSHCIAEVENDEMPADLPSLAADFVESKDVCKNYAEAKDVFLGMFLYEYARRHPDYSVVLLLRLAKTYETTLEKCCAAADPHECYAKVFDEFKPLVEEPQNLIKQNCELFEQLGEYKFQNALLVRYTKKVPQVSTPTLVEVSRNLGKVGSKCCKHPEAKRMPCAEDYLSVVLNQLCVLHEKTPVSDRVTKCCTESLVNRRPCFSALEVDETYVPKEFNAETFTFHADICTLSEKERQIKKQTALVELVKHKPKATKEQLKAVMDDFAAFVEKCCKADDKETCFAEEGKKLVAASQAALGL

Kd (human serum albumin): 50 nM
koff (human serum albumin): 0.0179 s⁻¹
kon (human serum albumin): 358000 M⁻¹ s⁻¹
Kd (cynomolgus serum albumin): 409 nM
koff (cynomolgus serum albumin): 0.217 s⁻¹
kon (cynomolgus serum albumin): 532000 M⁻¹ s⁻¹
B1: DARPin Protein #5 (designed binder)
chain: GSDLGKKLLEAARAGQDDEVRELLKAGADVNAKDYFSHTPLHLAARNGHLKIVEVLLKAGADVNAKDFAGKTPLHLAAADGHLEIVEVLLKAGADVNAQDIFGKTPADIAADAGHEDIAEVLQKAAGSPTPTPTTPTPTPTTPTPTPTGSDLGKKLLEAARAGQDDEVRILLAAGADVNAKDVLGWTPLHLAAFEGHLEIVEVLLKAGADVNAKDKKGWTPLQLAARTGHLEIVEVLLKAGADVNAKDHIGATPLHLAAWQGHPEIVEVLLKAGADVNAQDKSGKTPADLAADAGHEDIAEVLQKAAGSPTPTPTTPTPTPTTPTPTPTGSDLGKKLLQAARAGQLDEVRELLKAGADVNAKDTWGFTPLHIAAESGHLEIVEVLLKAGADVNAKDVQGRTPLHIAAHSGHLEIVEVLLKAGADVNAKDFRGWTPLHLAAWSGHLEIVEILLKAGADVNAQDKSGKTPADLAARAGHQDIAEVLQKAAGSPTPTPTTPTPTPTTPTPTPTGSDLGKKLLQAARAGQLDEVRELLKAGADVNAKDTWGFTPLHIAAESGHLEIVEVLLKAGADVNAKDVQGRTPLHIAAHSGHLEIVEVLLKAGADVNAKDFRGWTPLHLAAWSGHLEIVEILLKAGADVNAQDKSGKTPADLAARAGHQDIAEVLQKAA
notes: also called SMA136; Molecule No. 1
